Experimental data from patent publication US20160031958.

Columns and labels:
[1] = target: T1, FLAG-REST (unmutated, full-length), Q13127
T1 chain: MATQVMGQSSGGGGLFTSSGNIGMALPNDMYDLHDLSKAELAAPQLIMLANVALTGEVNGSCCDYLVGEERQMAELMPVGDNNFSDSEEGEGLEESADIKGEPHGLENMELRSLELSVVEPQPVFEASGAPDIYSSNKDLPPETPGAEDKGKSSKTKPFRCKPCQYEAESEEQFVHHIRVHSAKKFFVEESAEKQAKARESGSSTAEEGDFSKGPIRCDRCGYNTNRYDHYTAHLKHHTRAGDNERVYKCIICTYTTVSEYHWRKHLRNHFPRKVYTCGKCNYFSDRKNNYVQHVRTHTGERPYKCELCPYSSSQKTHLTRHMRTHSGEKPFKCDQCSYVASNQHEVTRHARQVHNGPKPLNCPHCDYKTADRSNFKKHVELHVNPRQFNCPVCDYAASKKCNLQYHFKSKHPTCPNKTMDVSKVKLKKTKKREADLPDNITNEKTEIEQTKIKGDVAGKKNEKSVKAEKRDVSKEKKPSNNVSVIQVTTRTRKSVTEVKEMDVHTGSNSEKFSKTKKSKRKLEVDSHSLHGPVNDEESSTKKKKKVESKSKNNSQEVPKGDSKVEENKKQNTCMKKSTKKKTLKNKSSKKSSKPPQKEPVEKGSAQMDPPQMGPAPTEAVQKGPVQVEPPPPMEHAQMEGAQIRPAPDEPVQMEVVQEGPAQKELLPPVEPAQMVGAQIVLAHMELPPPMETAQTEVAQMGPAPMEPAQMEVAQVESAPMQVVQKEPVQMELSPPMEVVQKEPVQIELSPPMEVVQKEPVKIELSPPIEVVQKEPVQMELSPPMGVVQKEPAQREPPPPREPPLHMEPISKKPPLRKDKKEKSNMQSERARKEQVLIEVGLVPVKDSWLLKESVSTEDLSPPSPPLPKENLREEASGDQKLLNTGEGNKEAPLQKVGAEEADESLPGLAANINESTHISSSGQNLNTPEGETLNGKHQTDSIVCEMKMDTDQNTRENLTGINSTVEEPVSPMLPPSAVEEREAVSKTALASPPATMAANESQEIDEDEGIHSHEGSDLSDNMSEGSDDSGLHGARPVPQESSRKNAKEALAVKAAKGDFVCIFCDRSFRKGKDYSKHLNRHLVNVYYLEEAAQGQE

[2] = target: T2, FLAG-REST (810-910)-GFP reporter peptide, unmutated
T2 chain: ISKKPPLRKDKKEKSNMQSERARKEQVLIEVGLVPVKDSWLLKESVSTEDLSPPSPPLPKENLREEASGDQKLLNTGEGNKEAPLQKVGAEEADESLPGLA

B1: FLAG-CTDSP1 (protein)
chain: MDSSAVITQISKEEARGPLRGKGDQKSAASQKPRSRGILHSLFCCVCRDDGEALPAHSGAPLLVEENGAIPKQTPVQYLLPEAKAQDSDKICVVIDLDETLVHSSFKPVNNADFIIPVEIDGVVHQVYVLKRPHVDEFLQRMGELFECVLFTASLAKYADPVADLLDKWGAFRARLFRESCVFHRGNYVKDLSRLGRDLRRVLILDNSPASYVFHPDNAVPVASWFDNMSDTELHDLLPFFEQLSRVDDVYSVLRQPRPGS
Western blot with REST phospho-specific polyclonal antibody [1]: exogenously expressed FLAG-CTDSP1 dephosphorylated these sites in full-length REST | in-gel GFP fluorescence on native gel (mobility shift) [2]: Dephosphorylation by CTDSP1 was also observed in the REST reporter peptides
